Results reported in US6350573B1, “Methods for identifying herbicidal agents that inhibit D1 protease” (E. I. du Pont de Nemours and Company, priority 1998, dated 2002).
Where a SMILES comes first, the peptide text is derived from it. The star is where a group is joined. Cbz = O=C(OCc1ccccc1)*; CH2Cl = ClC*

Key:
wheat D1 protease = experiment: In vitro high-throughput assay with LF-1 thylakoid membrane fragments containing pre-D1, detecting the mature D1 enzyme product; assay type: biochemical; details: 7 mM Z-LDLA-CMK; D1 protease pre-incubated with it for 1 h at pH 7.0; same assay without inhibitor 0.141 OD; without D1P 0.023 OD
Source text: The assay was capable of detecting both type of products. Because this assay used isolated thylakoid membrane containing the D1 pre-protein substrate the assay could be run at a pH similar to that found in the whole plant.
The PSII-enriched thylakoid membrane fragment was isolated from Scenedesmus LF-1 mutant cells using a mild TRITON X-100-treatment as follows:
Scenedesmus cells were broken in a “bead-beater” (Biospec Products, Bartlesville, Okla.) in an ice-water bath with 1-mm diameter glass beads using 10 bursts of 45 sec each. […]
When using the type 2 HRP conjugated primary antibody […] of colorimetric substrate, TMB (Kirkgaard & Perry Laboratories, Inc., Gaithersburg, Md.) or fluorescent substrate, N-acetyl-3,7-dihydroxyphenoxazine (A6550, Molecular Probes, Inc., Eugene, Oreg.) or chemiluminescence substrate, BM Chemiluminescence ELISA Reagent (Boehringer Mannheim Corp., Indianapolis, Ind.) was added to each well. […] Next the substrate was transfered to a regular plastic 96-well microtiter plate using the manifold and vacuum and then read for absorption or fluorescence or chmiluminescence intensity. […]

[1] = molecular target: D1 pre-protein (unprocessed D1 polypeptide) of the Scenedesmus obliquus LF-1 mutant, in PSII core complexes or thylakoid membrane fragments
[2] = molecular target: T1, internally quenched fluorescent substrate Ac-NAHN(K-Dnp)PLDLAAVE(K-Mca)PSING-OH
T1 chain: AHNKPLDLAAVEKPSING

Molecule: CC(C)C[C@H](NC(=O)OCc1ccccc1)C(=O)N[C@@H](CC(=O)O)C(=O)N[C@@H](CC(C)C)C(=O)N[C@@H](C)C(=O)CCl [Z-LDLA-CMK, Z-Leu-Asp-Leu-Ala-CH2Cl] (Cbz-LDLA-CH2Cl)
- Type2 AB and TMB, Absorption change, With D1P (wheat D1 protease): 0.081 OD

B1: wheat D1 protease purified from wheat leaves (Triticum aestivum, var. Fidel) (protein)
chain: LTEENLLFLEAWRAVDRAYYDKSFNGQSWFRYRERALRDDPMNTRQETYAAIKKMLATLDDPFTRLLEPEKFKSLRSGTQGALTGVGLSIGYPLALKGSPAGLSVMSAAPGGPAEKAGIVSGDVILAIDDTSAQDMDIYDAADRLQGPEGSSIDLTILSGADTRHVVLKRERYTLNPVRSRMCEIPGSEDSSKIGYIKLTTFNQNAAGSVKEAIKKLREKNVKAFVLDLRNNSGGLFPEGIEIAKIWMDKGVIVYICDSRGVRDIYEADGASTIAASEPLVVLVNKGTASASEILAGALKDNKRAVVYGEPTYGKGKIQSVFALSDGSGLAVTVARYETPAHTDIDKVGVTPDRPLPASFPTDEDGFCSCLRDPASCNLNAARLFVRS
- Type1 AB and ATTOPHOS (Fluorescence intensity), With D1P [1]: 1070 RU
- Type1 AB and PNP (Absorbance OD 450-650), With D1P [1]: 0.365 OD
- Type2 AB and A6550 (Fluorescence intensity), With D1P [1]: 263 RU
- Type2 AB and BM (Chemiluminescence intensity), With D1P [1]: 33 RU
- Type2 AB and TMB (Absorbance at OD 650-450), With D1P [1]: 0.141 OD
- fluorescamine fluorescence of the released C-terminal D1-tail, Well with D1 protease [1]: 515 ± 10 relative units
- fluorescence intensity of the internally quenched substrate (excitation 320 nm, emission 409 nm) [2]: samples containing active enzyme were measured at 3000 fluorescence units

B2: recombinant wheat D1 protease expressed in E. coli from pET-32a(+) (thioredoxin-D1 protease fusion, refolded) (protein)
chain: B1 chain
- specific activity in the microtiter plate ELISA assay [1]: The specific activity of the recombinant enzyme, expressed in relative units, is close to that of the natural enzyme isolated from wheat leaves

B3: D1 protease from Scenedesmus obliquus (protein)
chain: VTSEQLLFLEAWRAVDRAYVDKSFNGQSWFKLRETYLKKEPMDRRAQTYDAIRKLLAVLDDPFTRFLEPSRLAALRRGTAGSVTGVGLEITYDGGSGKDVVVLTPAPGGPAEKAGARAGDVIVTVDGTAVKGLSLYDVSDLLQGEADSQVEVVLHAPGAPSNTRTLQLTRQKVTINPVTFTTCSNVAAAALPPGAAKQQLGYVRLATFNSNTTAAAQQAFTELSKQGVAGLVLDIRNNGGGLFPAGVNVARMLVDRGDLVLIADSQGIRDIYSADGNSIDSATPLVVLVNRGTASASEVLAGALKDSKRGLIAGERTFGKGLIQTVVDLSDGSGVAVTVARYQTPAGVDINKIGVSPDVQLDPEVLPTDLEGVCRVLGSDAAPRLFG
- microtiter plate ELISA of D1 protease activity (color reaction, percent of pre-D1 cleaved) [1]: the intensity of the color reaction is shown to be proportional to enzyme concentration up to approximately 20% of pre-D1 cleaved
